Test results reported in patent US20060121042A1 (AstraZeneca / MedImmune, published 2006).

Experiments:
[1] = biological target: T1, Human EphA4-Fc fusion protein (human, UniProt P54764 20-547); test: BIAcore, IgG immobilized on the sensor chip, EphA4-Fc as analyte; koff and KD printed as ***, comment: off-rate below LOD
T1 construct: not shown: Fc portion of a human IgG1
Description: (§1) FIG. 15A-15B. […] Binding affinities were measured using the BIAcore assay. […] Variant kinetic measurements for human EphA4 and were obtained using BIAcore with immobilized variant antibodies and human EphA4-Fc and EphA4-His as analytes.

[2] = biological target: T2, Human EphA4-His fusion protein (human, UniProt P54764 20-547); test: BIAcore, IgG immobilized on the sensor chip, EphA4-his as analyte
T2 construct: also called rhuEphA4-His; not shown: Histidine tag
T2 sequence (P54764 20-547): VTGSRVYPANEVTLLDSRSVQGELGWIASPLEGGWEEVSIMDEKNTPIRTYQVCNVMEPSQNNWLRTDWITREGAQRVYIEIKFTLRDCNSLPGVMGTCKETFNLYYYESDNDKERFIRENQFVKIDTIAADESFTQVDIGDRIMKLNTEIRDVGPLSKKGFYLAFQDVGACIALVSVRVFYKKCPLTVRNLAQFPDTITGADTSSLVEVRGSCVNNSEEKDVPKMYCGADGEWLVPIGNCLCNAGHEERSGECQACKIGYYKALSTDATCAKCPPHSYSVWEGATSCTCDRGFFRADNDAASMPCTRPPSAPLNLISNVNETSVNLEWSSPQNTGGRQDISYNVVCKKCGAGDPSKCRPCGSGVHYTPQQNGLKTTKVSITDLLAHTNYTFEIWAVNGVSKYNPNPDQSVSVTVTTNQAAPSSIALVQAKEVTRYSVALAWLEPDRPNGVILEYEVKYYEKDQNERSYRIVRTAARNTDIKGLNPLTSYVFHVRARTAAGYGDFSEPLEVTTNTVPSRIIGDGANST
Description: as §1

r murine EphA3 = biological target: T3, r murine EphA3 (mouse, UniProt P29319); test: activity ELISA, IgG on coated antigen
T3 construct: recombinant Fc fusion (R&D Systems); also called rmuEphA3-Fc; mEphA3
T3 sequence (receptor-Fc fusion, looked up): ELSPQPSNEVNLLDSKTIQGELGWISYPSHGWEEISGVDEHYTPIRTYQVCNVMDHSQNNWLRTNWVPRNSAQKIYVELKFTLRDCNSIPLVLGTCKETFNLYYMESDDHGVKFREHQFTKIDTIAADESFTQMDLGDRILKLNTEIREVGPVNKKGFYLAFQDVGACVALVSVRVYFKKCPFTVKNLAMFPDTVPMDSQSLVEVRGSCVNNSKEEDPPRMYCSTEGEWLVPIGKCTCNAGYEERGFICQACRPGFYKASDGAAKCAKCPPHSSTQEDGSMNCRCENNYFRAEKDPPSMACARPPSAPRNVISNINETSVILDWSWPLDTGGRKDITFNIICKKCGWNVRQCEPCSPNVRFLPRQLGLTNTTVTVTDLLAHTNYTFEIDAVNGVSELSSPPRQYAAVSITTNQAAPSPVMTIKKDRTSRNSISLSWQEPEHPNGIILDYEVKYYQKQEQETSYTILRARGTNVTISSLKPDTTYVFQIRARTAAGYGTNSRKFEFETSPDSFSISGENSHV

r murine EphA4 = biological target: T4, r murine EphA4 (mouse, UniProt Q03137); test: activity ELISA, IgG on coated antigen
T4 construct: recombinant Fc fusion (R&D Systems); also called rmuEphA4-Fc; mEphA4
T4 sequence (Q03137 20-547 limits assumed): as the sequence (P54764 20-547) above, with P59A, N121S, V124G, R250Q, S251N, T270S, K378R, N406S counted along it

r murine EphA7 = biological target: T5, r murine EphA7 (mouse, UniProt Q61772); test: activity ELISA, IgG on coated antigen
T5 construct: recombinant Fc fusion (R&D Systems); also called rmuEphA7-Fc; mEphA7
T5 sequence (receptor-Fc fusion, looked up): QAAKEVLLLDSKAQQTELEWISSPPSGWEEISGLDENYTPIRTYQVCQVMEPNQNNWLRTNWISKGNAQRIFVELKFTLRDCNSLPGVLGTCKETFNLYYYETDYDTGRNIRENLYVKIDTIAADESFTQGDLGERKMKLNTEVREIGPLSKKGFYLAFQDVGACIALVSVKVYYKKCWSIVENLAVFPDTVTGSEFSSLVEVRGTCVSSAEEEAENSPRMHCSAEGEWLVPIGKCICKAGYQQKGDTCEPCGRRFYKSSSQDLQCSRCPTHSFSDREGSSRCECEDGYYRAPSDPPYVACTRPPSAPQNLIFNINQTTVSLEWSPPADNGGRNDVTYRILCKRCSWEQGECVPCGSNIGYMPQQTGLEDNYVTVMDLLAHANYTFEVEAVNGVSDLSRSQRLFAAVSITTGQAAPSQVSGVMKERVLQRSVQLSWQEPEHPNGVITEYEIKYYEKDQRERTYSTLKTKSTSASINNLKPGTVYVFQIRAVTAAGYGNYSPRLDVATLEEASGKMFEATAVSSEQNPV

mEphA4 = biological target: T6, mEphA4 (mouse, UniProt Q03137); test: ELISA, receptor coated on the plate, purified IgG, anti-human kappa-HRP
T6 construct: part of an Fc fusion; also called rmuEphA4-Fc
T6 sequence (Q03137 20-547 limits assumed): as the sequence (P54764 20-547) above, with P59A, N121S, V124G, R250Q, S251N, T270S, K378R, N406S counted along it

mEphA7 = biological target: T7, mEphA7 (mouse, UniProt Q61772); test: as above
T7 construct: part of an Fc fusion; also called rmuEphA7-Fc
T7 sequence (receptor-Fc fusion, looked up): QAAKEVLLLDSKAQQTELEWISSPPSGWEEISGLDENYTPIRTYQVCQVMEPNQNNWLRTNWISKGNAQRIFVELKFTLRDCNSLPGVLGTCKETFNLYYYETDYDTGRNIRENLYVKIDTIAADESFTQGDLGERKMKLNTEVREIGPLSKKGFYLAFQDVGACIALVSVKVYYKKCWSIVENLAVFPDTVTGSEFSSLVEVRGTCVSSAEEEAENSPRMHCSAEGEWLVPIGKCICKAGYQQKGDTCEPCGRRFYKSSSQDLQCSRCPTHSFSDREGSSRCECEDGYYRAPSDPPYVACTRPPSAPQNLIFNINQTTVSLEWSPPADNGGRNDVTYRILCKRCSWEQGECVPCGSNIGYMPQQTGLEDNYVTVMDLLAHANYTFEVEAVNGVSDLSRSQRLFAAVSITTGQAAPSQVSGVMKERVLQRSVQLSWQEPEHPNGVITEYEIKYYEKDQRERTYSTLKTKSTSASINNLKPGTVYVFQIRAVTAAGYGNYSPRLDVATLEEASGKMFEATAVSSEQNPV

mEphA3 = biological target: T8, mEphA3 (mouse, UniProt P29319); test: as above
T8 construct: part of an Fc fusion; also called rmuEphA3-Fc
T8 sequence (receptor-Fc fusion, looked up): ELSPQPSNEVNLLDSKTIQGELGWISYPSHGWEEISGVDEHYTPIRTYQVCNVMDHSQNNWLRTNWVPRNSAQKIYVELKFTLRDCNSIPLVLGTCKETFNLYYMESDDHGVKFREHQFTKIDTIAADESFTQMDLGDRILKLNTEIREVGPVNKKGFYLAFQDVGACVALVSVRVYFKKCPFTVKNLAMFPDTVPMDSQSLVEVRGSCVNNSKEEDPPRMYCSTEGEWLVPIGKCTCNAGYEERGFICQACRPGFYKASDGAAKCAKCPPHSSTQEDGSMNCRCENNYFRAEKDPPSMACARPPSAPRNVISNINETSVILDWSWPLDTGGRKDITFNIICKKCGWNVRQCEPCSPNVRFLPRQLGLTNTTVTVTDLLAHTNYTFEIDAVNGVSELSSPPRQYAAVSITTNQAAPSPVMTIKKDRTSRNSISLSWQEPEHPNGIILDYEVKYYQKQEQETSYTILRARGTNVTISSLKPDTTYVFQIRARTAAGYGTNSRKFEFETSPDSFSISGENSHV

T1 sequence (P54764 20-547): as the sequence (P54764 20-547) above

B1: 6B7 IgG1 (affinity optimized combinatorial variant of mAb GEA44 in human IgG1 format) (antibody, V domains shown)
VH: QVQLLQSGAEVKKPGASVKVPCKASGYTFTSRAMSWVRQAPGQGLEWMGWINTNTGNPTYAQGFTGRFVFSLDTSVSTAYLQISSLKAEDTAVYYCARVRFTVYGDGMDVWGQGTLVTVSS
VL: EIVLTQSPATLSVSPGERATLSCRASQSVSSNPAWYQQKPGQAPRLLIYGASTRATGIPDRFSASGSGTDFTLTISRVEPEDFAVYYCQQYGPSWTFGQGTKVEIK
Binder B1 has a kon [1] of 793000 M⁻¹ s⁻¹, a Kd [2] of 1.2 nM and a koff [2] of 0.000353 s⁻¹. The kon [2] was 295000 M⁻¹ s⁻¹, the binding result (r murine EphA3) was “binds” and the binding result (r murine EphA4) was “binds”. B1: binds (r murine EphA7); binds (mEphA4); binds (mEphA7). B1: binds (mEphA3).

B2: 3C6 IgG1 (affinity optimized combinatorial variant of mAb GEA44 in human IgG1 format) (antibody, V domains shown)
VH: QVQLLQSGAEVKKPGASVKVPCKASGYTFTSRAMSWVRQAPGQGLEWMGWINTNTGNPTYAQGFTGRFVFSLDTSVSTAYLQISSLKAEDTAVYYCARVRLTVYGDGMDVWGQGTLVTVSS
VL: EIVLTQSPATLSVSPGERATLSCRASQSVSSNPPWYQQKPGQAPRLLIYGASTRATGIPDRFSASGSGTDFTLTISRVEPEDFAVYYCQQYGSSWTFGQGTKVEIK
With B2 the kon [1] was 464000 M⁻¹ s⁻¹, the binding result (r murine EphA4) was “binds” and the binding result (r murine EphA7) was “binds”. B2: binds (mEphA4); binds (mEphA7).
